Assay results published in PMC3667199 (Biochemistry, 2011).

B1: PTP10D (Drosophila melanogaster) (protein)
chain: CRKTTKDSRANDNMSLPDSVIEQNRPILIKNFAEHYRLMSADSDFRFSEEFEELKHVGRDQPCTFADLPCNRPKNRFTNILPYDHSRFKLQPVDDDEGSDYINANYVPGHNSPREFIVTQGPLHSTRDDFWRMCWESNSRAIVMLTRCFEKGREKCDQYWPNDTVPVFYGDIKVQILNDSHYADWVMTEFMLCRGSEQRILRHFHFTTWPDFGVPNPPQTLVRFVRAFRDRIGAEQRPIVVHCSAGVGRSGTFITLDRILQQINTSDYVDIFGIVYAMRKERVWMVQTEQQYICIHQCLLAVLEGKEN

Tests used:
[1] = molecular target: T1, PTP10D (Drosophila melanogaster, UniProt P35992); experiment: crystal structure; format: biochemical
T1 sequence (P35992 1226-1533): B1 chain

[2] = substrate: O=[N+]([O-])c1ccc(OP(=O)(O)O)cc1; experiment: purified protein

Row | Molecule | Ki [1] [nM] | Km [2] [mM] | Vmax [2] [µmol/min/mg] | kcat [2] [s⁻¹] | kcat/Km [2] [M⁻¹ s⁻¹]
1 | [O]=[V]([OH])([OH])[OH] [sodium vanadate] | 1530 ± 140 | – | – | – | –
2 | B1 | – | 5.3128 ± 0.05842 | 13.7 | 8.24 ± 0.89 | 1550 ± 160
